Earlier results on one substance are cited in PMC5663392.

This series concerns the target FANCL RING (Homo sapiens) (UniProt Q9NW38).
Sequence of UniProt Q9NW38 (Q9NW38 304-366): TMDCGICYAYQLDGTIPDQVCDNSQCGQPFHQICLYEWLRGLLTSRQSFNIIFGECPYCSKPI

A word on the Kd: it is the constant that tells how readily two partners part at equilibrium. Ube2T (from UniProt Q9NPD8): the Kd is 500 nM.
